Measurements as given in paper PMC9482650, “Quantitative fragmentomics allow affinity mapping of interactomes” (Nature Communications, 2022).

What was measured:
Assay in all cases: holdup assay
Design in all cases: key: below the threshold = too weak to quantify, mostly under pKd 3.1 to 4
[1] = target: T1, APBA2_1, Q99767
T1 sequence (Q99767 563-664, limits assumed, looked up): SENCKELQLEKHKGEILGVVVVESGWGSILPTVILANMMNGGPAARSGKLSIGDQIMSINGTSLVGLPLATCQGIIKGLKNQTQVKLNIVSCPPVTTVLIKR

[2] = target: ARHGEF12, Q9NZN5-2
Chain of ARHGEF12, Q9NZN5-2 (Q9NZN5 other isoform, or with tags, fused parts or gaps): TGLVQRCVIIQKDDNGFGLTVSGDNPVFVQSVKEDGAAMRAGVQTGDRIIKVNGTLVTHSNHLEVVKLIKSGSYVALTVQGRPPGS

[3] = target: CASK, O14936
Chain of CASK, O14936 (O14936 487-570): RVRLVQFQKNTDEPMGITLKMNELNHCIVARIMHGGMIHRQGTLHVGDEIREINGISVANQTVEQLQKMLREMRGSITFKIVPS

[4] = target: T2, DLG3_1, Q92796
T2 sequence (Q92796 125-227, limits assumed, looked up): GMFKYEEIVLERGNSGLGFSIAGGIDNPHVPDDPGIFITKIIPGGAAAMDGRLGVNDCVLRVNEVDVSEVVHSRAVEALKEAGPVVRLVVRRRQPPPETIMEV

[5] = target: T3, DLG3_2, Q92796
T3 sequence (Q92796 221-321, limits assumed, looked up): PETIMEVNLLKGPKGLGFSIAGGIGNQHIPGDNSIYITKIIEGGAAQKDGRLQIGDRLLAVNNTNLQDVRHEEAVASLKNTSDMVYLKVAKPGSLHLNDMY

[6] = target: DLG5_1, Q8TDM6
Chain of DLG5_1, Q8TDM6 (Q8TDM6 617-713): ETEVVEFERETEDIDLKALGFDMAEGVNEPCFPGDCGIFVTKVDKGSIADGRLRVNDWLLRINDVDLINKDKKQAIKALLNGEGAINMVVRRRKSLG

[7] = target: FRMPD3, Q5JV73
Chain of FRMPD3, Q5JV73 (Q5JV73 12-100): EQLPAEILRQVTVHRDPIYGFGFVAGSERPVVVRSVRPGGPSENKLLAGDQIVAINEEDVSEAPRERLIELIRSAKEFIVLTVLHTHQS

[8] = target: GOPC, Q9HD26
[9] = target: GRASP, Q7Z6J2
Chain of GRASP, Q7Z6J2 (Q7Z6J2 96-193): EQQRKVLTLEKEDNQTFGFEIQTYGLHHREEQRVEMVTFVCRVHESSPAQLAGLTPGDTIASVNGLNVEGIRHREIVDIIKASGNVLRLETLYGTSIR

[10] = target: GRID2IP_1, A4D2P6
Chain of GRID2IP_1, A4D2P6 (A4D2P6 1-87): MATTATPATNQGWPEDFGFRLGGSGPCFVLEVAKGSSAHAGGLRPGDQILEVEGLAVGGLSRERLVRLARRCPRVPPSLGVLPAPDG

[11] = target: IL16_4, Q14005
Chain of IL16_4, Q14005 (Q14005 1229-1329): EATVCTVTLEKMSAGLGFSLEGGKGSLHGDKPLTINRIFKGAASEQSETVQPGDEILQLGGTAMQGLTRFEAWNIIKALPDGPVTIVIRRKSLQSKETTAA

[12] = target: LIMK2, P53671
Chain of LIMK2, P53671 (P53671 143-248): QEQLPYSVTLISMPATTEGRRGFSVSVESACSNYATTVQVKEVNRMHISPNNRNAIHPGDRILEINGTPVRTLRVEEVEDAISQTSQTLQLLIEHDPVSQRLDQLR

[13] = target: MAGI1_2, Q96QZ7
Chain of MAGI1_2, Q96QZ7 (Q96QZ7 456-580): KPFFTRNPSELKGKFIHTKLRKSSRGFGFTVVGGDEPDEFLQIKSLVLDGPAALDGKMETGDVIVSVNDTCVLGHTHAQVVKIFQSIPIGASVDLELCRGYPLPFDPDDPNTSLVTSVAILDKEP

[14] = target: MAST2, Q6P0Q8
Chain of MAST2, Q6P0Q8 (Q6P0Q8 1099-1202): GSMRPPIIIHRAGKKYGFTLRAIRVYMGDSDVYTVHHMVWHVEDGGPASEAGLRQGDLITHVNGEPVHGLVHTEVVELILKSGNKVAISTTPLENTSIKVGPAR

[15] = target: T4, MPDZ_10, O75970
T4 sequence (O75970 1624-1722, limits assumed, looked up): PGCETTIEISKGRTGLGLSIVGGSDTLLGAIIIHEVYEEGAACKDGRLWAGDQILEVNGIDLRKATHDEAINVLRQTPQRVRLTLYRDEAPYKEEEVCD

[16] = target: T5, NHERF3_1, Q5T2W1
T5 sequence (Q5T2W1 4-100, limits assumed, looked up): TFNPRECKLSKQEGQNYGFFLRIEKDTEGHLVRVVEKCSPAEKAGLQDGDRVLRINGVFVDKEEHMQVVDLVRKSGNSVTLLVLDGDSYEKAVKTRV

[17] = target: NHERF4_1, Q86UT5-2
Chain of NHERF4_1, Q86UT5-2 (Q86UT5 other isoform, or with tags, fused parts or gaps): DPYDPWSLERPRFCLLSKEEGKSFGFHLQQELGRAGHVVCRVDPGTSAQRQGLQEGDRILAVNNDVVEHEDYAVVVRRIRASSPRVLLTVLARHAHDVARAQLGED

[18] = target: PDZRN4_1, Q6ZMN7
Chain of PDZRN4_1, Q6ZMN7 (Q6ZMN7 213-318): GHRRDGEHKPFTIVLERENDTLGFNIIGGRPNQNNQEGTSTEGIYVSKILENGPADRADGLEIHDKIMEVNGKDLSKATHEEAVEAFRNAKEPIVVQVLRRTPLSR

[19] = target: T6, RHPN1, Q8TCX5
T6 sequence (Q8TCX5 508-602, limits assumed, looked up): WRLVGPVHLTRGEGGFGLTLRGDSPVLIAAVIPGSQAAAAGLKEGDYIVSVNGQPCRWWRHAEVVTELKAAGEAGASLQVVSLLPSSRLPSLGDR

[20] = target: SCRIB_1, Q14160
Chain of SCRIB_1, Q14160 (Q14160 718-814): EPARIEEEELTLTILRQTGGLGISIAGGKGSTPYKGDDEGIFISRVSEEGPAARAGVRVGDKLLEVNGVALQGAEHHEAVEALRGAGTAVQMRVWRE

[21] = target: T7, SHANK1, Q9Y566
T7 sequence (Q9Y566 658-767, limits assumed, looked up): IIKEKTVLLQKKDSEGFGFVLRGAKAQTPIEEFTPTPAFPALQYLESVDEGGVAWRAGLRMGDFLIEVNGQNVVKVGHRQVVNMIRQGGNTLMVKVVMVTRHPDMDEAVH

[22] = target: T8, SNTA1, Q13424
T8 sequence (Q13424 82-180, limits assumed, looked up): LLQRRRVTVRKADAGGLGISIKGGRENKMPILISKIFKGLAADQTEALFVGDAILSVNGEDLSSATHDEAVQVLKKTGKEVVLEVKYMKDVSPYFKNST

[23] = target: T9, SNTG1, Q9NSN8
T9 sequence (Q9NSN8 52-150, limits assumed, looked up): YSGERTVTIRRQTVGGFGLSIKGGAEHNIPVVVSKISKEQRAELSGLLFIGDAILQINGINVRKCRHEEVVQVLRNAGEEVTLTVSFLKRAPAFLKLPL

[24] = target: T10, SYNJ2BP, P57105
T10 sequence (P57105 8-110, limits assumed, looked up): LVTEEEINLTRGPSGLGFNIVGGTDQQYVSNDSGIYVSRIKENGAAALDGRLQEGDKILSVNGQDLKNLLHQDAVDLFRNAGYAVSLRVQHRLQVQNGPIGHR

[25] = target: T11, TJP3_3, O95049
T11 sequence (O95049 375-456, limits assumed, looked up): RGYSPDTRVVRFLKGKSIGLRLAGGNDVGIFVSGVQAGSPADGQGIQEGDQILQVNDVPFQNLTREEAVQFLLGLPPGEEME

[26] = target: T12, TX1BP3, O14907
T12 sequence (O14907 10-122, limits assumed, looked up): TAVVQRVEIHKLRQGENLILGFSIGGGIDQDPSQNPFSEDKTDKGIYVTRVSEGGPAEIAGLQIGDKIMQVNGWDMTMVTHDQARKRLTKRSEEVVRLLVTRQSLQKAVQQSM

[27] = plain residues with an end cap or a label only (N-terminal biotin on a linker: ado-ado)
[28] = plain residues with an end cap or a label only (N-terminal biotin on a linker: (peg)3)

For QYPGSPDSWV [PKP4, Q99569], the pKd [1, 27] was “below the threshold”, the pKd [2, 27] was 3.54 and the pKd [3, 27] was 3.74. The pKd [4, 27] was 3.97, the pKd [5, 27] was 4.13 and the pKd [6, 27] was “below the threshold”. For the same binder, the pKd [7, 27] was 3.47, the pKd [8, 27] was “below the threshold” and the pKd [9, 27] was 3.52. For the same binder, the pKd [10, 27] was “below the threshold”, the pKd [11, 27] was “below the threshold” and the pKd [12, 27] was “below the threshold”. For the same binder, the pKd [13, 27] was 3.48, the pKd [14, 27] was 4.09 and the pKd [15, 27] was 3.7. The pKd [16, 27] was “below the threshold”, the pKd [17, 27] was 3.57 and the pKd [18, 27] was 4.06. The pKd [19, 27] was 4.26, the pKd [20, 27] was 3.91 and the pKd [21, 27] was “below the threshold”. The pKd [22, 27] was 4.13, the pKd [23, 27] was 4.57 and the pKd [24, 27] was 4.94. For the same binder, the pKd [25, 27] was 4.86 and the pKd [26, 27] was 4.98.

YDEPTTTTSVPL [SARS-Cov2-3a, P0DTC3] was tested, and the pKd [1, 28] was “below the threshold”, the pKd [2, 28] was “below the threshold” and the pKd [3, 28] was “below the threshold”. For the same binder, the pKd [4, 28] was “below the threshold”, the pKd [5, 28] was “below the threshold” and the pKd [6, 28] was “below the threshold”. The pKd [7, 28] was “below the threshold”, the pKd [8, 28] was “below the threshold” and the pKd [9, 28] was 3.83. For the same binder, the pKd [10, 28] was “below the threshold”, the pKd [11, 28] was “below the threshold” and the pKd [12, 28] was “below the threshold”. The pKd [13, 28] was “below the threshold”, the pKd [14, 28] was “below the threshold” and the pKd [15, 28] was “below the threshold”. The pKd [16, 28] was 3.92, the pKd [17, 28] was 4.43 and the pKd [18, 28] was “below the threshold”. The pKd [19, 28] was “below the threshold”, the pKd [20, 28] was “below the threshold” and the pKd [21, 28] was “below the threshold”. For the same binder, the pKd [22, 28] was “below the threshold”, the pKd [23, 28] was “below the threshold” and the pKd [24, 28] was “below the threshold”. The pKd [25, 28] was “below the threshold” and the pKd [26, 28] was “below the threshold”.

With GQETPLNTFC [MAP7D2, Q96T17] the pKd [1, 27] was “below the threshold”, the pKd [2, 27] was 3.77 and the pKd [3, 27] was “below the threshold”. The pKd [4, 27] was “below the threshold”, the pKd [5, 27] was 3.93 and the pKd [6, 27] was “below the threshold”. The pKd [7, 27] was “below the threshold”, the pKd [8, 27] was “below the threshold” and the pKd [9, 27] was “below the threshold”. For the same binder, the pKd [10, 27] was “below the threshold”, the pKd [11, 27] was “below the threshold” and the pKd [12, 27] was “below the threshold”. The pKd [13, 27] was “below the threshold”, the pKd [14, 27] was 4.21 and the pKd [15, 27] was “below the threshold”. For the same binder, the pKd [16, 27] was 4.26, the pKd [17, 27] was 3.6 and the pKd [18, 27] was “below the threshold”. The pKd [19, 27] was “below the threshold”, the pKd [20, 27] was 3.88 and the pKd [21, 27] was “below the threshold”. The pKd [22, 27] was “below the threshold”, the pKd [23, 27] was “below the threshold” and the pKd [24, 27] was “below the threshold”. For the same binder, the pKd [25, 27] was “below the threshold” and the pKd [26, 27] was 4.04.
